Measurements from the supplement of paper PMC7877785.
± gives the uncertainty stated by the source.

Assay: self-splicing fitness, log relative to wild type (ln ratio); higher = more splicing; Tetrahymena group I intron in knt gene, E. coli kanamycin selection, DiMSum; sequences stand for … in CUCUCU…GGAGGGAAAAGUUAUCAGGCAUGCACCUGGUAGCUAGUCUUUAAACCAAUAGAUUGCAUCGGUUUAAAAGGCAAGACCGUCAAAUUGCGGGAAAGGGGUCAACAGCCGUUCAGUACCAAGUCUCAGGGGAAACUUUGAGAUGGCCUUGCAAAGGGUAUGGUAAUAAGCUGACGGACAUGGUCCUAACCACGCAGCCAAGUCCUAAGUCAACAGAUCUUCUGUUGAUAUGGAUGCAGUUCACAGACUAAAUGUCGGUCGGGGAAGAUGUAUUCUUCUCAUAAGAUAUAGUCGGACCUCUCCUUAAUGGGAGCUAGCGGAUGAAGUGAUGCAACACUGGAGCCGCUGGGAACUAAUUUGUAUGCGAAAGUAUAUUGAUUAGUUUUGGAGUACUCGUGGUCG
Outline: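 Colonies from six replicate transformations of E. coli BL21(DE3) were pooled and amplicon-sequenced on an Illumina HiSeq 2500. The library placed an intron with all eight P1ex-region nucleotides randomised inside the knt kanamycin-resistance gene on pET-22b(+), and cells grew overnight at 37°C or 30°C on LB agar with or without 25 μg/mL kanamycin (plus 100 μg/mL carbenicillin, 50 μM IPTG, 0.2% rhamnose). Fitness is the DiMSum error-weighted combination of wild-type-normalised replicate fold changes, kanamycin versus none.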

Sequence	self-splicing fitness (ln) (30 °C)	self-splicing fitness (ln) (37 °C)
UAUUAGCAAUAUUACGAUUU	-1.76 ± 0.14	-0.438 ± 0.12
UAUUAGCAAUAUUACGCACA	-0.485 ± 0.13	-0.0783 ± 0.23
UAUUAGCAAUAUUACGCGAG	-2.21 ± 0.2	-0.0781 ± 0.15
UAUUAGCAAUAUUACGCGCA	-0.12 ± 0.13	0.163 ± 0.18
UAUUAGCAAUAUUACGCUAG	-2.36 ± 0.19	-0.845 ± 0.15
UAUUAGCAAUAUUACGCUAU	–	-2.14 ± 0.29
UAUUAGCAAUAUUACGCUUG	-0.91 ± 0.11	-0.336 ± 0.16
UAUUAGCAAUAUUACGGCGU	-1.24 ± 0.18	-0.989 ± 0.18
UAUUAGCAAUAUUACGGGAU	–	-2.61 ± 0.41
UAUUAGCAAUAUUACGGGUA	-0.742 ± 0.12	-0.599 ± 0.11
UAUUAGCAAUAUUACGGUCG	-0.442 ± 0.13	0.383 ± 0.23
UAUUAGCAAUAUUACGGUGG	-2.71 ± 0.28	-1.22 ± 0.2
UAUUAGCAAUAUUACGUACC	-3.37 ± 0.37	-1.26 ± 0.35
UAUUAGCAAUAUUACGUAGA	-2.62 ± 0.19	-1.38 ± 0.19
UAUUAGCAAUAUUACGUAUU	-3.62 ± 0.17	-1.25 ± 0.14
UAUUAGCAAUAUUACGUCCA	-0.691 ± 0.11	-0.00937 ± 0.15
UAUUAGCAAUAUUACGUCUG	0.0275 ± 0.14	-0.652 ± 0.1
UAUUAGCAAUAUUACGUGAG	-1.55 ± 0.094	0.0296 ± 0.13
UAUUAGCAAUAUUACGUUAG	-2.33 ± 0.18	-1.62 ± 0.17
UAUUAGCAAUAUUACGUUUC	-3.79 ± 0.28	-2.98 ± 0.34
UCAAAGCAAUAUUACGAAGA	-2.21 ± 0.18	-1.02 ± 0.13
UCAAAGCAAUAUUACGACGU	-0.985 ± 0.063	0.289 ± 0.069
UCAAAGCAAUAUUACGAUGG	-1.91 ± 0.1	0.127 ± 0.11
UCAAAGCAAUAUUACGAUUU	-3.58 ± 0.24	-2.3 ± 0.22
UCAAAGCAAUAUUACGCACC	–	-0.644 ± 0.36

Sequence	self-splicing fitness (ln) (30 °C)	self-splicing fitness (ln) (37 °C)
UCAAAGCAAUAUUACGCGUC	-3.15 ± 0.14	-2.89 ± 0.18
UCAAAGCAAUAUUACGCGUU	-3.65 ± 0.18	-3.64 ± 0.29
UCAAAGCAAUAUUACGCUGU	-3.7 ± 0.21	-2.82 ± 0.18
UCAAAGCAAUAUUACGGCAC	-3.33 ± 0.38	-1.68 ± 0.35
UCAAAGCAAUAUUACGGGAG	-4.12 ± 0.3	-2.5 ± 0.19
UCAAAGCAAUAUUACGGGCC	-3.12 ± 0.4	–
UCAAAGCAAUAUUACGGUAA	-2.48 ± 0.16	-0.268 ± 0.13
UCAAAGCAAUAUUACGGUAG	-1.54 ± 0.088	-1.19 ± 0.11
UCAAAGCAAUAUUACGGUGC	-3.92 ± 0.42	-1.94 ± 0.39
UCAAAGCAAUAUUACGUAUC	-3.73 ± 0.23	-2.17 ± 0.19
UCAAAGCAAUAUUACGUAUG	-2.44 ± 0.12	-2.05 ± 0.15
UCAAAGCAAUAUUACGUCGC	-3.36 ± 0.18	-2.43 ± 0.25
UCAAAGCAAUAUUACGUCGU	-2.23 ± 0.11	-1.28 ± 0.11
UCAAAGCAAUAUUACGUCUC	-4.01 ± 0.36	-1.5 ± 0.19
UCAAAGCAAUAUUACGUGGG	-2.85 ± 0.098	-2.17 ± 0.12
UCAAAGCAAUAUUACGUUCC	-2.89 ± 0.38	–
UCACAGCAAUAUUACGAAAA	-3 ± 0.31	-1.27 ± 0.17
UCACAGCAAUAUUACGAAGU	-2.55 ± 0.22	-3.34 ± 0.31
UCACAGCAAUAUUACGACGA	-0.431 ± 0.071	-0.228 ± 0.073
UCACAGCAAUAUUACGAUGC	-3.33 ± 0.17	-1.26 ± 0.13
UCACAGCAAUAUUACGAUGG	-1.52 ± 0.06	-0.512 ± 0.081
UCACAGCAAUAUUACGCGCU	-3.85 ± 0.21	-1.78 ± 0.16
UCACAGCAAUAUUACGCUAG	-2.91 ± 0.13	-1.49 ± 0.12
UCACAGCAAUAUUACGCUCC	-2.21 ± 0.27	-1.51 ± 0.37
